Measurements taken from patent US20170226203A1 (Daiichi Sankyo, published 2017).
Positions count from the first letter of the chain named.

B1: human anti-human Orai1 antibody 2C1.1 (antibody, human IgG2, lambda, V domains shown)
VH: QVQLQQWGAGLLKPSETLSLTCAVYGGSFSGYYWSWIRQPPGKGLEWIGEIDHSGSTNYNPALKSRLTISVDTSKNQFSLKLSSVTAADTAVYYCARAGSGGYEDWFDPWGQGTLVTVSS
VL: QSVLTQPPSVSGAPGQRVTISCTGSSSNIGAGYNVHWYQQFPRTDPKLLIYVYNIRPSGVPDRFSGSRSGTSASLAITGLQTEDEADYYCQSYDSSLSGVVFGGGTKLTVLG
B2: mouse anti-human Orai1 antibody 10F8 (antibody, mouse IgG1, kappa, V domains shown)
VH: QVQLQQSGAELVRPGSSVKISCKASGYAFRSYWMNWVKQRPGQGLEWIGHIYPGDGDTNYNGKFKGKATLTADKSSSTAYMQLSSLTSEDSAVYLCGRGGTTVVVDYWGQGTTLTVSS
VL: DIVMSQSPSSLAVSAGEKVTMSCKSSQSLLNSRTRKNYLAWYQQKPGQSPKLLIYWASTRESGVPDRFTGSGSGTDFTLTISSVQAEDLAVYYCKQSYNLPWTFGGGTKLEIKR
B3: mouse anti-human Orai1 antibody 14F74 (antibody, mouse IgG1, kappa, V domains shown)
VH: QVQLQQSGAELVRPGSSVKISCKASGYAFSSYWMNWVKQRPGQGLEWIGHIYPGDGDTNYNGKFKGKATLTADKSSSTAYMQLSGLTSEDSAVYFCARSGRLRFAMDYWGQGTSVTVSS
VL: DIVMSQSPSSLAVSAGEKVTMSCKSSQSLLNSRTRKNYLAWYQQKPGQSPKLLIYWASTRESGVPDRFTGSGSGTDFTLTISSVQAEDLAVYYCKQSYNLRTFGGGTKLEIQR
B4: mouse anti-human Orai1 antibody 17F6 (antibody, mouse IgG1, kappa, V domains shown)
VH: B3 VH with G56A, Q82H, G85S, A97S, S99Q, G100L, R101G, L102F, F104Y
VL: B3 VL with Q112K
B5: affinity maturation antibody hR198_HG1/LG1 (antibody, human IgG1, kappa)
heavy: not shown
light: DIQLTQSPSSLSASVGDRVTITCRASQSIGGSLSWFQQKPGKAPKRLIYSTSTLESGVPSRFSGSGSGTDYTLTISSLQPEDFAMYYCLQFAIFPDSFGQGTKVEIKRTVAAPSVFIFPPSDEQLKSGTASVVCLLNNFYPREAKVQWKVDNALQSGNSQESVTEQDSKDSTYSLSSTLTLSKADYEKHKVYACEVTHQGLSSPVTKSFNRGEC
B6: hR198_HG1-LALA/LG1 (antibody, human IgG1, kappa, L234A L235A)
heavy: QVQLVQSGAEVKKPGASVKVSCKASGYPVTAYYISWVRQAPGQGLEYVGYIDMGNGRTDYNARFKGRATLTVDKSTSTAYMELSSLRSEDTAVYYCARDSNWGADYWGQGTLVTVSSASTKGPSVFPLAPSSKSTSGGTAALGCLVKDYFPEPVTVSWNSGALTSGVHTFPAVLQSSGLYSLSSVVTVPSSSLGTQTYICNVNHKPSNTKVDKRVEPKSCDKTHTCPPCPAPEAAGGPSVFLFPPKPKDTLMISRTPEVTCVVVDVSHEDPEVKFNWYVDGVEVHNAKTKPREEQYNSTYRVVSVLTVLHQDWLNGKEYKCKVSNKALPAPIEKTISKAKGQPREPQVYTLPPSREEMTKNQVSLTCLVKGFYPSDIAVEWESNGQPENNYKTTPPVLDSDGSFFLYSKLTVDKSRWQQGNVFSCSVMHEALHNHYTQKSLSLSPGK
light: B5 light
B7: human anti-human Orai1 antibody 5H3.1 (antibody, human IgG2, lambda, V domains shown)
VH: QVQLVQSGAEVKKPGASVKVSCKASGYTFTDYYMNWVRQAPGQGLEWMGWINPNSGGTKYAQKFQGRVTMTRDTSIRTAYMELSRLRSDDTAVYYCAREYGGNSDWFDPWGQGTLVTVSS
VL: QSVLTQPPSVSGAPGQRVTISCTGSSSNIGAGYDVHWYQQLPGTAPKLLIYGNSNRPSGVPDRFSGSKSGTSASLAITGLQAEDEADYYCQSYDNRLSDSVVIGGGTKLAVQG
B8: parent antibody Fab hR198_H4/L4-Fab (Fab, V domains shown)
VH: QVQLVQSGAEVKKPGASVKVSCKASGYPVTAYYISWIRQAPGQGLEYVGYIDMGNGRTNYNARFKGRATLTVDKSTSTAYMELSSLRSEDTAVYYCARDSNWGVDYWGQGTLVTVSS
VL: DIQLTQSPSSLSASVGDRVTITCRASQSIGNSLSWFQQKPGKAVKRLIYSTSTLESGVPSRFSGSGSGTDYTLTISSLQPEDFAMYYCLQFATFPDTFGQGTKVEI
notes: Fab of hR198_H4/L4
B9: humanized anti-human Orai1 antibody hR198_H4/L4 (antibody, human IgG1, kappa, V domains shown)
VH: B8 VH
VL: DIQLTQSPSSLSASVGDRVTITCRASQSIGNSLSWFQQKPGKAVKRLIYSTSTLESGVPSRFSGSGSGTDYTLTISSLQPEDFAMYYCLQFATFPDTFGQGTKVEIKR
notes: Human IgG1 / kappa; also called hH4/L4

What follows are binders tested against T1, human Orai1 (human, UniProt Q96D31 1-301) (assay: cell-based or functional assay).
T1 sequence (Q96D31 whole entry): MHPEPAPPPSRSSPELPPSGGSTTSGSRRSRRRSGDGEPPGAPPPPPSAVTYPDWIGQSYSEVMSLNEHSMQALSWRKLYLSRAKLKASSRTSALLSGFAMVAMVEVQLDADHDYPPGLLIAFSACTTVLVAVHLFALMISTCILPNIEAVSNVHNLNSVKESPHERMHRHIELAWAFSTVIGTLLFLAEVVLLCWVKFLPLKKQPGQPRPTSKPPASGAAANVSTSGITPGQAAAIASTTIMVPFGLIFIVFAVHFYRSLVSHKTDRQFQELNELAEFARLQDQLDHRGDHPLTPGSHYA

IC50, IFN-γ release from human PBMC treated with PMA and A23187 | IC50, IL-2 release from Jurkat cells treated with PMA and A23187 | IC50, IL-2 release from human PBMC treated with PMA and A23187 | IC80, IFN-γ release from human PBMC treated with PMA and A23187 | IC80, IL-2 release from Jurkat cells treated with PMA and A23187 | IC80, IL-2 release from human PBMC treated with PMA and A23187 | Binder
≥ 0.8 mg/L | ≥ 0.08 mg/L | ≥ 0.1 mg/L | ≥ 300 mg/L | ≥ 60 mg/L | ≥ 17 mg/L | B1
≥ 0.8 mg/L | ≥ 0.08 mg/L | ≥ 0.1 mg/L | ≥ 300 mg/L | ≥ 60 mg/L | ≥ 17 mg/L | B2
≥ 0.8 mg/L | ≥ 0.08 mg/L | ≥ 0.1 mg/L | ≥ 300 mg/L | ≥ 60 mg/L | ≥ 17 mg/L | B3
≥ 0.8 mg/L | ≥ 0.08 mg/L | ≥ 0.1 mg/L | ≥ 300 mg/L | ≥ 60 mg/L | ≥ 17 mg/L | B4
≤ 0.04 mg/L | ≤ 0.01 mg/L | ≤ 0.02 mg/L | ≤ 2 mg/L | ≤ 0.2 mg/L | ≤ 0.4 mg/L | B5
≤ 0.04 mg/L | ≤ 0.01 mg/L | ≤ 0.02 mg/L | ≤ 2 mg/L | ≤ 0.2 mg/L | ≤ 0.4 mg/L | B6
≥ 0.8 mg/L | ≥ 0.08 mg/L | ≥ 0.1 mg/L | ≥ 300 mg/L | ≥ 60 mg/L | ≥ 17 mg/L | B7

The binders below were run against T1, human Orai1 (assay: flow cytometry, pcDNA3.1-hOrai1 transfected HEK293T cells).

binding result | Binder
binds | B8
binds | B9
